Measurements as given in PMC2826804 (Journal of molecular biology, 2009).

Molecular target: the molecule itself
Assay: native gel or EMSA

B1: GST-LARP6 fusion protein (La ribonucleoprotein domain family, member 6) (natural protein, human, UniProt Q9BRS8 1-491, looked up)
chain: MAQSGGEARPGPKTAVQIRVAIQEAEDVDELEDEEEGAETRGAGDPARYLSPGWGSASEEEPSRGHSGTTASGGENEREDLEQEWKPPDEELIKKLVDQIEFYFSDENLEKDAFLLKHVRRNKLGYVSVKLLTSFKKVKHLTRDWRTTAHALKYSVVLELNEDHRKVRRTTPVPLFPNENLPSKMLLVYDLYLSPKLWALATPQKNGRVQEKVMEHLLKLFGTFGVISSVRILKPGRELPPDIRRISSRYSQVGTQECAIVEFEEVEAAIKAHEFMITESQGKENMKAVLIGMKPPKKKPAKDKNHDEEPTASIHLNKSLNKRVEELQYMGDESSANSSSDPESNPTSPMAGRRHAATNKLSPSGHQNLFLSPNASPCTSPWSSPLAQRKGVSRKSPLAEEGRLNCSTSPEIFRKCMDYSSDSSVTPSGSPWVRRRRQAEMGTQEKSPGTSPLLSRKMQTADGLPVGVLRLPRGPDNTRGFHGHERSRACV
B1: binds.
